Test results published in article PMC5173029.

Target: Recombinant FIP-sch3 from Stachybotrys chartarum (Stachybotrys chartarum IBT 7711)
Experiment: SEC; Superdex 75 (10/300 GL) gel filtration in PBS (10 mM, pH 7.2) after the GST tag was removed; markers 66, 43, 29 and 17 kDa; calculated mass about 28.3 kDa against 14.1 kDa for the monomer

Substance: Recombinant FIP-sch3 from Stachybotrys chartarum (natural protein)
- stoichiometry N: 2
